Results reported in paper PMC12273574, “Biochemical and structural characterization of a GNAT superfamily protein acetyltransferase from Helicobacter pylori” (The Journal of Biological Chemistry, 2025).

Target: DNA processing protein A (DprA) from Helicobacter pylori strain J99 (Helicobacter pylori strain J99) (UniProt B5ZAA1)
Experiment: SPR; Biacore 3000; DprA immobilised on a CM5 chip (~500 RU), HP0935 passed over at varying concentrations; 50 mM Tris-Cl pH 7.4, 25 °C, 20 μl/min, 300 s dissociation; Langmuir binding fit

Kd: 3.28 µM
Substance: HP0935, N-acetyltransferase domain-containing protein (GNAT superfamily protein acetyltransferase) from Helicobacter pylori strain 26695 (from UniProt O25589 2-161) (enzyme)
